Laboratory results as given in article doi:10.1101/2022.06.14.496144, “Crystal structure and functional peculiarities of a primordial Orange Carotenoid Protein (OCPX)” (bioRxiv, 2022).

Biological target: T1, SynOCP1 lacking the N-terminal extension (ΔNTE-SynOCP1) (Synechocystis sp. PCC 6803, UniProt P74102 13-317)
T1 construct: Orange Carotenoid Protein of Synechocystis sp; PCC 6803 (Uniprot P74102) lacking residues M1-F12 from the N-terminus; also called SynOCP1 ΔNTE mutant; source: E. coli C41(DE3) synthesizing echinenone, purified (subtractive IMAC, SEC)
T1 sequence (looked up): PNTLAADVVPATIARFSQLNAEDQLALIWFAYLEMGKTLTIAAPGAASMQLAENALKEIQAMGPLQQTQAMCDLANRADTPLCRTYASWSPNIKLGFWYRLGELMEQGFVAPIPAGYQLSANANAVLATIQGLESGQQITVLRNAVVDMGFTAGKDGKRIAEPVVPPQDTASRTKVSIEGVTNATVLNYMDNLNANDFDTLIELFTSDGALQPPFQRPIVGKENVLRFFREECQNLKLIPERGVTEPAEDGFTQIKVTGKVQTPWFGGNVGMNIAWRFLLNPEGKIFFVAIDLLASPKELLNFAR
Test: SEC; spectrochromatography on Superdex 200 Increase 5/150 with diode-array detection; ΔNTE-OCP 20 μM mixed with FRP 40 μM; 20 mM Tris-HCl pH 7.6, 150 mM NaCl; absorbance spectrum ('oranging') read in the same runs
Settings: both partners purified

binding result: binds
B1: Fluorescence Recovery Protein from Synechocystis (SynFRP) (natural protein, UniProt P74103 1-109, looked up)
chain: MLQTAEAPWSQAETQSAHALFRKAYQRELDGLLATVQAQASQITQIDDLWKLHDFLSAKRHEIDGKYDDRQSVIIFVFAQLLKEGLVQAEELTFLAADKQSKIKALARL
notes: Fluorescence Recovery Protein of Synechocystis (Uniprot P74103); source: E. coli C41(DE3), purified (subtractive IMAC, SEC)
